± gives the standard deviation of the averaged measurements.

The data set is described as follows: total protein half-life in vivo (active degradation + dilution); higher = more stable protein.
The mark [1] stands for this setting: E. coli NCM3722 delta-clpP delta-lon delta-hslV, growth: N-lim chemostat, doubling time 6 h.
The mark [2] stands for this setting: E. coli NCM3722 delta-clpP, growth: N-lim chemostat, doubling time 6 h.
[3] abbreviates: E. coli NCM3722 delta-hslV, growth: N-lim chemostat, doubling time 6 h.
The mark [4] stands for this setting: E. coli NCM3722 delta-lon, growth: N-lim chemostat, doubling time 6 h.
Setting [5] is: E. coli NCM3722 delta-smpB, growth: N-lim chemostat, doubling time 6 h.
[6] abbreviates: wild type E. coli NCM3722, growth: C-lim chemostat, doubling time 3 h.
The mark [7] stands for this setting: wild type E. coli NCM3722, growth: C-lim chemostat, doubling time 6 h.
[8] abbreviates: wild type E. coli NCM3722, growth: C-lim chemostat, doubling time 12 h.
Where [9] appears, read: wild type E. coli NCM3722, growth: N-lim chemostat, doubling time 6 h.
[10] abbreviates: wild type E. coli NCM3722, growth: N-lim chemostat, doubling time 12 h.
The mark [11] stands for this setting: wild type E. coli NCM3722, growth: P-lim chemostat, doubling time 6 h.
Setting [12] is: wild type E. coli NCM3722, growth: P-lim chemostat, doubling time 12 h.

For the sequence “MSQSEFDSALPNGIGLAPYLRMKQEGMTENESRIVEWLLKPGNLSCAPAIKDVAEALAVSEAMIVKVSKLLGFSGFRNLRSALEDYFSQSEQVLPSELAFDEAPQDVVNKVFNITLRTIMEGQSIVNVDEIHRAARFFYQARQRDLYGAGGSNAICADVQHKFLRIGVRCQAYPDAHIMMMSASLLQEGDVVLVVTHSGRTSDVKAAVELAKKNGAKIICITHSYHSPIAKLADYIICSPAPETPLLGRNASARILQLTLLDAFFVSVAQLNIEQANINMQKTGAIVDFFSPGALK [P0ACS7]”, the “total protein half-life in vivo” value by setting is: under setting [1], 6.33 ± 0.37 h; under setting [2], 6 ± 0.24 h; under setting [3], 5.5 ± 0.74 h; under setting [4], 5.71 h; under setting [5], 5.56 ± 0.55 h; under setting [6], 3.07 ± 0.4 h. In addition, the “total protein half-life in vivo” value under setting [7] worked out at 6.86 ± 0.23 h; the “total protein half-life in vivo” value under setting [8] came to 14.6 ± 1.1 h; the “total protein half-life in vivo” value under setting [9] came to 5.77 ± 0.44 h; the “total protein half-life in vivo” value under setting [10] came out at 11.3 ± 1.8 h; the “total protein half-life in vivo” value under setting [11] came out at 6.09 ± 0.2 h; the “total protein half-life in vivo” value under setting [12] was determined as 12.5 ± 1.1 h.
As to “MANIEIRQETPTAFYIKVHDTDNVAIIVNDNGLKAGTRFPDGLELIEHIPQGHKVALLDIPANGEIIRYGEVIGYAVRAIPRGSWIDESMVVLPEAPPLHTLPLATKVPEPLPPLEGYTFEGYRNADGSVGTKNLLGITTSVHCVAGVVDYVVKIIERDLLPKYPNVDGVVGLNHLYGCGVAINAPAAVVPIRTIHNISLNPNFGGEVMVIGLGCEKLQPERLLTGTDDVQAIPVESASIVSLQDEKHVGFQSMVEDILQIAERHLQKLNQRQRETCPASELVVGMQCGGSDAFSGVTANPAVGYASDLLVRCGATVMFSEVTEVRDAIHLLTPRAVNEEVGKRLLEEMEWYDNYLNMGKTDRSANPSPGNKKGGLANVVEKALGSIAKSGKSAIVEVLSPGQRPTKRGLIYAATPASDFVCGTQQVASGITVQVFTTGRGTPYGLMAVPVIKMATRTELANRWFDLMDINAGTIATGEETIEEVGWKLFHFILDVASGKKKTFSDQWGLHNQLAVFNPAPVT”, the “total protein half-life in vivo” value is, setting by setting: under setting [1], 4.25 ± 0.3 h; under setting [2], 2.43 h; under setting [6], 2.1 ± 0.18 h; under setting [7], 3.22 ± 0.48 h; under setting [8], 3.39 ± 0.27 h; under setting [12], 3.6 h.
“MNKAIKVSLYISFVLIICALSKNIMMLNTSDFGRAIKPLIEDIPAFTYDLPLLYKLKGHIDSIDSYEYISSYSYILYTYVLFISIFTEYLDARVLSLFLKVIYIYSLYAIFTSYIKTERYVTLFTFFILAFLMCSSSTLSMFASFYQEQIVIIFLPFLVYSLTCKNNKSMLLLFFSLLIISTAKNQFILTPLIVYSYYIFFDRHKLIIKSVICVVCLLASIFAISYSKGVVELNKYHATYFGSYLYMKNNGYKMPSYVDDKCVGLDAWGNKFDISFGATPTEVGTECFESHKDETFSNALFLLVSKPSTIFKLPFDDGVMSQYKENYFHVYKKLHVIYGESNILTTITNIKDNIFKNIRFISLLLFFIASIFIRNNKIKASLFVVSLFGISQFYVSFFGEGYRDLSKHLFGMYFSFDLCLYITVVFLIYKIIQRNQDNSDVKH”: the “total protein half-life in vivo” value is, setting by setting: under setting [1], 5.64 h; under setting [2], 6.29 ± 1.9 h; under setting [3], 5.24 ± 0.26 h; under setting [4], 4.87 ± 0.47 h; under setting [5], 4.88 ± 0.4 h; under setting [7], 6.387 ± 0.036 h. For the same sequence, the “total protein half-life in vivo” value runs as follows: under setting [8], 12 h; under setting [9], 5.59 ± 0.57 h; under setting [10], 9.92 ± 2.3 h; under setting [11], 5.62 ± 0.53 h; under setting [12], 10.2 ± 1.1 h.
For the sequence “MNGELIWVLSLLAVAIVLFATGRVRMDAVALFVIVAFALSGTLTVPEVFSGFSDPNVVLIAALFIIGDGLVRTGVATVMGTWLVKVAGNSEIKMLVLLMLTVAGLGAFMSSTGVVAIFIPVVLSVAMRMQTSPSRLMMPLSFAGLISGMMTLVATPPNLVVNSELLREGYHGFSFFSVTPIGLVVLVLGILYMLVMRFMLKGDTQTPQREGWTRRTFRDLIREYRLTGRARRLAIRPGSPMIGQRLDDLKLRERYGANVIGVERWRRFRRVIVNVNGVSEFRARDVLLIDMSAADVDLRQFCSEQLLEPMVLRGEYFSDQALDVGMAEISLIPESELIGKSVREIGFRTRYGLNVVGLKRNGVALEGSLADEPLLLGDIILVVGNWKLIGMLAKQGRDFVALNLPEEVSEASPAHSQAPHAIFCLVLMVALMLTDEIPNPVAAIIACLLMGKFRCIDAESAYKSIHWPSIILIVGMMPFAVALQKTGGVALAVKGLMDIGGGYGPHMMLGCLFVLSAVIGLFISNTATAVLMAPIALAAAKTMGVSPYPFAMVVAMAASAAFMTPVSSPVNTLVLGPGNYSFSDFVKLGVPFTIIVMAVCVVMIPMLFPF [P0AFU2]”, the “total protein half-life in vivo” value reads like this: under setting [3], 6.68 ± 0.32 h; under setting [4], 6.39 ± 0.64 h; under setting [5], 6.29 ± 0.45 h; under setting [6], over 4 h; under setting [7], 5.46 h; under setting [9], 5.65 ± 1.7 h. In addition, the “total protein half-life in vivo” value runs as follows: under setting [10], 12.4 ± 3.2 h; under setting [11], over 8 h; under setting [12], 12.8 ± 1.7 h.
Regarding “MSKIFDFVKPGVITGDDVQKVFQVAKENNFALPAVNCVGTDSINAVLETAAKVKAPVIVQFSNGGASFIAGKGVKSDVPQGAAILGAISGAHHVHQMAEHYGVPVILHTDHCAKKLLPWIDGLLDAGEKHFAATGKPLFSSHMIDLSEESLQENIEICSKYLERMSKIGMTLEIELGCTGGEEDGVDNSHMDASALYTQPEDVDYAYTELSKISPRFTIAASFGNVHGVYKPGNVVLTPTILRDSQEYVSKKHNLPHNSLNFVFHGGSGSTAQEIKDSVSYGVVKMNIDTDTQWATWEGVLNYYKANEAYLQGQLGNPKGEDQPNKKYYDPRVWLRAGQTSMIARLEKAFQELNAIDVL [P0AB71]”, the “total protein half-life in vivo” value came out at 5.42 ± 0.2 h under setting [1]; 5.14 ± 0.69 h under setting [2]; 5.06 ± 0.15 h under setting [3]; 5.07 ± 0.24 h under setting [4]; 4.73 ± 0.32 h under setting [5]; 3.19 ± 0.097 h under setting [6]. Further, the “total protein half-life in vivo” value is 5.67 ± 0.37 h under setting [7]; 9.46 ± 0.69 h under setting [8]; 4.87 ± 0.47 h under setting [9]; 8.4 ± 0.15 h under setting [10]; 5.84 ± 0.2 h under setting [11]; 12.19 ± 0.092 h under setting [12].
As to “MKIILLFLAALASFTVHAQPPSQTVEQTVRHIYQNYKSDATAPYFGETGERAITSARIQQALTLNDNLTLPGNIGWLDYDPVCDCQDFGDLVLESVAITQTDADHADAVVRFRIFKDDKEKTTQTLKMVAENGRWVIDDIVSNHGSVLQAVNSENEKTLAALASLQKEQPEAFVAELFEHIADYSWPWTWVVSDSYRQAVNAFYKTTFKTANNPDEDMQIERQFIYDNPICFGEESLFSRVDEIRVLEKTADSARIHVRFTLTNGNNEEQELVLQRREGKWEIADFIRPNSGSLLKQIEAKTAARLKQ”, the “total protein half-life in vivo” value by setting is: under setting [1], 5.65 h; under setting [2], 5.01 ± 0.93 h; under setting [4], 6.249 ± 0.025 h; under setting [5], 5.65 ± 0.12 h; under setting [6], 3.56 h; under setting [7], over 8 h. In addition, the “total protein half-life in vivo” value runs as follows: under setting [8], 11.1 ± 0.5 h; under setting [9], 6.33 ± 0.27 h; under setting [10], 12.3 ± 1.8 h; under setting [11], 6.45 h; under setting [12], 11.28 ± 0.1 h.

The record behind these values is the supplement of paper PMC11246515.
